molecular target: T1, ETS1 (Homo sapiens, UniProt P14921); test: gcPBM; 1 nM ETS1; settings: tags: N-terminal GST (pDEST15), kept (PMC6008103); label: surface-attached array probe
T1 sequence: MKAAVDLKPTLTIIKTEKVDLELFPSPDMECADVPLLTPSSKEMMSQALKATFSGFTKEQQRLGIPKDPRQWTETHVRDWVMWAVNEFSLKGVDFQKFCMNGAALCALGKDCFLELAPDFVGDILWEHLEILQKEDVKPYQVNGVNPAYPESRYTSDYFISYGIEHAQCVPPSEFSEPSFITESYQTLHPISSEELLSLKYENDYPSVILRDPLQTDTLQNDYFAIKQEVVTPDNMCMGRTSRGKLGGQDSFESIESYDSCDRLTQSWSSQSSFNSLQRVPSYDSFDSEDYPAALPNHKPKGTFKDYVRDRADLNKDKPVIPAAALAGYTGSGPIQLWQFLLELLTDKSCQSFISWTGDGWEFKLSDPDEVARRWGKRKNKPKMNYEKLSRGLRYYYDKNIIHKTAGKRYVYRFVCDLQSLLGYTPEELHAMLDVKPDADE

Binder	binding signal
Table S2 B row 126 (dsDNA) DNA 1: TGGCGCTTCCTGTCGCTACCCCAGCGGCCCAGGGCC DNA 2: GGCCCTGGGCCGCTGGGGTAGCGACAGGAAGCGCCA	18100 PBM fluorescence, median of replicate spots
Table S2 C row 95 (dsDNA) DNA 1: TGTCTCATCAGCCAGGCCACAAACGCGATGTTTACA DNA 2: TGTAAACATCGCGTTTGTGGCCTGGCTGATGAGACA	338 PBM fluorescence, median of replicate spots
Table S2 C row 30 (dsDNA) DNA 1: TGAAATTTTTCTTTTTGTGGTCAGTAATCCCAAAAA DNA 2: TTTTTGGGATTACTGACCACAAAAAGAAAAATTTCA	339 PBM fluorescence, median of replicate spots
Table S2 C row 143 (dsDNA) DNA 1: CGGCCCCGCTGAGGGGCCGCAAGGACGAGGACGCCT DNA 2: AGGCGTCCTCGTCCTTGCGGCCCCTCAGCGGGGCCG	300 PBM fluorescence, median of replicate spots
Table S2 C row 140 (dsDNA) DNA 1: CCACGGCCCGGTGCCTGTGGTCCCCTCCCCGAGGGT DNA 2: ACCCTCGGGGAGGGGACCACAGGCACCGGGCCGTGG	328 PBM fluorescence, median of replicate spots
Table S2 C row 97 (dsDNA) DNA 1: CGAGGGCGCGCGTCTCGCGGTCCATCCAGCTCAGCA DNA 2: TGCTGAGCTGGATGGACCGCGAGACGCGCGCCCTCG	331 PBM fluorescence, median of replicate spots
Table S2 B row 703 (dsDNA) DNA 1: GCCGGGCACTTCCTGTGGAGGCCGAAGCGGGTGCGC DNA 2: GCGCACCCGCTTCGGCCTCCACAGGAAGTGCCCGGC	17200 PBM fluorescence, median of replicate spots
Table S2 C row 94 (dsDNA) DNA 1: CCCAAGCCCGCGGGCTGCGGGCGCTGATTGGGCGGC DNA 2: GCCGCCCAATCAGCGCCCGCAGCCCGCGGGCTTGGG	346 PBM fluorescence, median of replicate spots
Table S2 C row 165 (dsDNA) DNA 1: ATCAGCGTGGCTGCTGCCGCAGAACAAGCCACGCTT DNA 2: AAGCGTGGCTTGTTCTGCGGCAGCAGCCACGCTGAT	345 PBM fluorescence, median of replicate spots
Table S2 B row 649 (dsDNA) DNA 1: TTATTTCCGGTGTTGATCTTTTTATTGGTACCAGGC DNA 2: GCCTGGTACCAATAAAAAGATCAACACCGGAAATAA	43000 PBM fluorescence, median of replicate spots
Table S2 C row 195 (dsDNA) DNA 1: GCTGCTGACTGCCCCTGAGGTTAGAGATTGACTAGA DNA 2: TCTAGTCAATCTCTAACCTCAGGGGCAGTCAGCAGC	325 PBM fluorescence, median of replicate spots
Table S2 C row 193 (dsDNA) DNA 1: GCTCCTAGATGGCTCTGTGGGCAGGTGCTGGCCAAG DNA 2: CTTGGCCAGCACCTGCCCACAGAGCCATCTAGGAGC	347 PBM fluorescence, median of replicate spots
Table S2 C row 8 (dsDNA) DNA 1: CCACCCGGGGCCTGGACCGCACCACGGTCACTGGCG DNA 2: CGCCAGTGACCGTGGTGCGGTCCAGGCCCCGGGTGG	316 PBM fluorescence, median of replicate spots
Table S2 C row 188 (dsDNA) DNA 1: GGAGATAGCCTAGGCTGTGGTTTTTCAGAGAAACCT DNA 2: AGGTTTCTCTGAAAAACCACAGCCTAGGCTATCTCC	350 PBM fluorescence, median of replicate spots
Table S2 B row 1920 (dsDNA) DNA 1: ACATTCTTCCGGTTGGACCTCCGCGATCAGCGCTGT DNA 2: ACAGCGCTGATCGCGGAGGTCCAACCGGAAGAATGT	16500 PBM fluorescence, median of replicate spots
Table S2 C row 194 (dsDNA) DNA 1: TCGGGAACGTGGGGCTGCGGCCGCCCATGGTGCCCC DNA 2: GGGGCACCATGGGCGGCCGCAGCCCCACGTTCCCGA	335 PBM fluorescence, median of replicate spots
Table S2 C row 62 (dsDNA) DNA 1: GAGCATCTTGAGGTCTGTGGTTCAGCTACCAGCCCC DNA 2: GGGGCTGGTAGCTGAACCACAGACCTCAAGATGCTC	296 PBM fluorescence, median of replicate spots
Table S2 C row 142 (dsDNA) DNA 1: CCTAAGAGTAAGCTAACCACAGGGATTCTTTTGTAG DNA 2: CTACAAAAGAATCCCTGTGGTTAGCTTACTCTTAGG	351 PBM fluorescence, median of replicate spots
Table S2 C row 11 (dsDNA) DNA 1: AGGTCCTCTGCATTCTGTGGTCACAAACCCAGAGCC DNA 2: GGCTCTGGGTTTGTGACCACAGAATGCAGAGGACCT	347 PBM fluorescence, median of replicate spots
Table S2 C row 135 (dsDNA) DNA 1: GGGTCCCGGGGACCCTGCGGGCTCCGAGTAGTCGTA DNA 2: TACGACTACTCGGAGCCCGCAGGGTCCCCGGGACCC	332 PBM fluorescence, median of replicate spots
Table S2 C row 106 (dsDNA) DNA 1: ATTCACTCATCCCTCACCACAGCCAGCTGCTTGAGA DNA 2: TCTCAAGCAGCTGGCTGTGGTGAGGGATGAGTGAAT	320 PBM fluorescence, median of replicate spots

Binder	binding signal
Table S2 C row 53 (dsDNA) DNA 1: CCTGGGCTGCAGGCACCCACAGTCCAGAGGCTCAAA DNA 2: TTTGAGCCTCTGGACTGTGGGTGCCTGCAGCCCAGG	318 PBM fluorescence, median of replicate spots
Table S2 C row 160 (dsDNA) DNA 1: GCCAGCCTGGGCCGGGCCACAAGAACAAGGAATGTT DNA 2: AACATTCCTTGTTCTTGTGGCCCGGCCCAGGCTGGC	322 PBM fluorescence, median of replicate spots
Table S2 C row 9 (dsDNA) DNA 1: CATGTGAGCGACTGGGCCGCAGCCATCAGCCTCCTG DNA 2: CAGGAGGCTGATGGCTGCGGCCCAGTCGCTCACATG	350 PBM fluorescence, median of replicate spots
Table S2 C row 185 (dsDNA) DNA 1: GCAGAAATATGCTGAACCACAACTGAAGGTGGCTGA DNA 2: TCAGCCACCTTCAGTTGTGGTTCAGCATATTTCTGC	345 PBM fluorescence, median of replicate spots
Table S2 C row 139 (dsDNA) DNA 1: GGAGCTGCTCCAGGCTGCGGTGGGATCAAAGCTACC DNA 2: GGTAGCTTTGATCCCACCGCAGCCTGGAGCAGCTCC	316 PBM fluorescence, median of replicate spots
Table S2 C row 29 (dsDNA) DNA 1: TGGCCATGGCCTATGACCGCTATGTGGCCATCTGCT DNA 2: AGCAGATGGCCACATAGCGGTCATAGGCCATGGCCA	340 PBM fluorescence, median of replicate spots
Table S2 C row 66 (dsDNA) DNA 1: TCCTGAGTGCTGGGAACCGCAGCGCCACATGCACCC DNA 2: GGGTGCATGTGGCGCTGCGGTTCCCAGCACTCAGGA	341 PBM fluorescence, median of replicate spots
Table S2 B row 614 (dsDNA) DNA 1: GAGGACTTCCGGGTGGGTGTGATATCTACGGGCCCG DNA 2: CGGGCCCGTAGATATCACACCCACCCGGAAGTCCTC	17700 PBM fluorescence, median of replicate spots
Table S2 C row 111 (dsDNA) DNA 1: CCAGCTGTACTGAGTTGAGGTTTTTCTGACCCTCAG DNA 2: CTGAGGGTCAGAAAAACCTCAACTCAGTACAGCTGG	336 PBM fluorescence, median of replicate spots
Table S2 C row 25 (dsDNA) DNA 1: CCAGCCCGGCCTCGGACCGCGGCACCCCTCCTGGCC DNA 2: GGCCAGGAGGGGTGCCGCGGTCCGAGGCCGGGCTGG	312 PBM fluorescence, median of replicate spots
Table S2 C row 35 (dsDNA) DNA 1: GTAGCTGTAACTGCCACCGCGATGCCGAAGGCGCCC DNA 2: GGGCGCCTTCGGCATCGCGGTGGCAGTTACAGCTAC	324 PBM fluorescence, median of replicate spots
Table S2 C row 17 (dsDNA) DNA 1: GGGGTGTACACTAGCTGCGGTCTGATTTAGCCCTTT DNA 2: AAAGGGCTAAATCAGACCGCAGCTAGTGTACACCCC	351 PBM fluorescence, median of replicate spots
Table S2 C row 45 (dsDNA) DNA 1: GCGGGGTTGGGAGGCTGCGGGAGTTTGCGTCCCCTC DNA 2: GAGGGGACGCAAACTCCCGCAGCCTCCCAACCCCGC	339 PBM fluorescence, median of replicate spots
Table S2 C row 61 (dsDNA) DNA 1: TGCTCTCGGCCTGGCTGTGGGCGGGTGGCCATCAGT DNA 2: ACTGATGGCCACCCGCCCACAGCCAGGCCGAGAGCA	327 PBM fluorescence, median of replicate spots
Table S2 C row 132 (dsDNA) DNA 1: GGCCTGATAGCAATGGCCACAAACACAGCAAGCCAC DNA 2: GTGGCTTGCTGTGTTTGTGGCCATTGCTATCAGGCC	348 PBM fluorescence, median of replicate spots
Table S2 C row 169 (dsDNA) DNA 1: TGGGCATGCGCGGCGCGCGGTTGGCACTGGCTGCGA DNA 2: TCGCAGCCAGTGCCAACCGCGCGCCGCGCATGCCCA	336 PBM fluorescence, median of replicate spots
Table S2 C row 189 (dsDNA) DNA 1: CCCTGGGGTCCCTTTGCCGCAGTTCCACATCTGCAG DNA 2: CTGCAGATGTGGAACTGCGGCAAAGGGACCCCAGGG	346 PBM fluorescence, median of replicate spots
Table S2 C row 126 (dsDNA) DNA 1: TCCACGCCCCGGCGCTGCGGGCACCGAGTAAAACGC DNA 2: GCGTTTTACTCGGTGCCCGCAGCGCCGGGGCGTGGA	327 PBM fluorescence, median of replicate spots
Table S2 C row 122 (dsDNA) DNA 1: AGAGACAGTAGCAGCCGCGGTGACTGGCGGCCTCCT DNA 2: AGGAGGCCGCCAGTCACCGCGGCTGCTACTGTCTCT	296 PBM fluorescence, median of replicate spots
Table S2 C row 73 (dsDNA) DNA 1: GTGGCACCCTCAAGGGCCACAACGGCTGGGTAACCC DNA 2: GGGTTACCCAGCCGTTGTGGCCCTTGAGGGTGCCAC	312 PBM fluorescence, median of replicate spots
Table S2 C row 19 (dsDNA) DNA 1: GACAAATCAAATGCCACCGCAGAGTTTACTCGAGTT DNA 2: AACTCGAGTAAACTCTGCGGTGGCATTTGATTTGTC	343 PBM fluorescence, median of replicate spots
